Test results published in publication PMC4526890, “Crystal structures of Mycobacterium tuberculosis GlgE and complexes with non-covalent inhibitors” (Scientific Reports, 2015).

Target: T1, Mycobacterium tuberculosis GlgE (Mycobacterium tuberculosis), P9WQ17
T1 chain: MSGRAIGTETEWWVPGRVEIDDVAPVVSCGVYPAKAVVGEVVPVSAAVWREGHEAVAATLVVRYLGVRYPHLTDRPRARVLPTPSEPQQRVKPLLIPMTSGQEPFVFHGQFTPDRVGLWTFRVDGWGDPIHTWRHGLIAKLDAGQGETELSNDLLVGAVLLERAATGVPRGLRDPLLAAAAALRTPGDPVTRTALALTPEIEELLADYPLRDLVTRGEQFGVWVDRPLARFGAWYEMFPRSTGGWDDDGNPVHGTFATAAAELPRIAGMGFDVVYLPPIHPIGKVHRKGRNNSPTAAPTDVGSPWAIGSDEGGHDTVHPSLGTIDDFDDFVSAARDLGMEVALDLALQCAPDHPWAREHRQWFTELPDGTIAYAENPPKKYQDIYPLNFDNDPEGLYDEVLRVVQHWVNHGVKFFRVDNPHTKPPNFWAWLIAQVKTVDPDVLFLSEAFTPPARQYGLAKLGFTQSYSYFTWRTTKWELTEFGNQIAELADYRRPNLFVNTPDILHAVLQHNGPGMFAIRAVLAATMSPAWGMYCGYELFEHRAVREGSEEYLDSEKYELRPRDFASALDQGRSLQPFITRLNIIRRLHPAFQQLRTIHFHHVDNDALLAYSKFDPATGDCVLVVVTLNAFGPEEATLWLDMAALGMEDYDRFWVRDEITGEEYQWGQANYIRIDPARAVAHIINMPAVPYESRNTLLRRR
Assay: crystal structure; Mtb GlgE co-crystallised with 10 mM maltose (hanging drop, 0.1 M HEPES pH 7.5, 1.0 M ammonium formate), 3.3 Å; the same crystals soaked with 10 mM maltohexaose, 4.0 Å; homodimer seen in the crystal
Conditions: remark: other sources report otherwise

B1: Mycobacterium tuberculosis GlgE, P9WQ17 1-701 (enzyme)
chain: T1 chain
Question: B1 was tested. Which stoichiometry N did it give?
Answer: The stoichiometry N was 2.
